This assay has as its target T1, human NPY2 receptor (human, UniProt P49146 1-381).
T1 construct: whole, on cells; also called hNPY2-R; hNPY2R
T1 sequence (looked up): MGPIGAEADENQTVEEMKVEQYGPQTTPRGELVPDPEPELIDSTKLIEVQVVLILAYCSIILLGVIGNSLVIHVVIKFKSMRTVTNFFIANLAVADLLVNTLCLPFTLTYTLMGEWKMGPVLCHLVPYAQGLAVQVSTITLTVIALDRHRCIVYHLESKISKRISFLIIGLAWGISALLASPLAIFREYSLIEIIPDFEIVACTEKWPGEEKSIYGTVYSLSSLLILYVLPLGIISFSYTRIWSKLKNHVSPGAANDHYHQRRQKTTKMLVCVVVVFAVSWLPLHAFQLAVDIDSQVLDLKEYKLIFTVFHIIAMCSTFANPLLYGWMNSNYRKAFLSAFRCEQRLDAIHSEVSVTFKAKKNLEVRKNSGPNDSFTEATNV
As to the kind of experiment: RLB: displacement of 125I-PYY(1-36) from hNPY2R membranes. On the technique in general: Displacement assays read how much labelled ligand stays bound in the presence of the test substance.

*1 amine or outer side, *2 acyl side, *3 side chain or, on linkers, in order; H or OH if unused. Side-chain parts run from the residue outwards. The star is where a group is joined. C18 diacid = O=C(O)CCCCCCCCCCCCCCCCC(=O)*; γGlu = O=C(O)[C@H](CCC(=O)[*:2])N[*:1]; Isovaleryl = CC(C)CC(=O)*; Ahx = NCCCCCC(=O)O

The results in this text go back to patent US20260015399A1 (Boehringer Ingelheim, published 2026).

What is called Ki is the equilibrium dissociation constant of an inhibitor or competing ligand from its target. Low readings indicate higher affinity, high ones lower affinity.

B1: Compound 97 (peptide)
peptide: Isovaleryl-APEK([Ahx-γGlu-C18 diacid])PEEDATPEEIQRYYLSLRHYYNWLTRQRY-NH2
SMILES: CC[C@H](C)[C@H](NC(=O)[C@H](CCC(=O)O)NC(=O)[C@H](CCC(=O)O)NC(=O)[C@@H]1CCCN1C(=O)[C@@H](NC(=O)[C@H](C)NC(=O)[C@H](CC(=O)O)NC(=O)[C@H](CCC(=O)O)NC(=O)[C@H](CCC(=O)O)NC(=O)[C@@H]1CCCN1C(=O)[C@H](CCCCNC(=O)CCCCCNC(=O)CC[C@H](NC(=O)CCCCCCCCCCCCCCCCC(=O)O)C(=O)O)NC(=O)[C@H](CCC(=O)O)NC(=O)[C@@H]1CCCN1C(=O)[C@H](C)NC(=O)CC(C)C)[C@@H](C)O)C(=O)N[C@@H](CCC(N)=O)C(=O)N[C@@H](CCCNC(=N)N)C(=O)N[C@@H](Cc1ccc(O)cc1)C(=O)N[C@@H](Cc1ccc(O)cc1)C(=O)N[C@@H](CC(C)C)C(=O)N[C@@H](CO)C(=O)N[C@@H](CC(C)C)C(=O)N[C@@H](CCCNC(=N)N)C(=O)N[C@@H](Cc1c[nH]cn1)C(=O)N[C@@H](Cc1ccc(O)cc1)C(=O)N[C@@H](Cc1ccc(O)cc1)C(=O)N[C@@H](CC(N)=O)C(=O)N[C@@H](Cc1c[nH]c2ccccc12)C(=O)N[C@@H](CC(C)C)C(=O)N[C@H](C(=O)N[C@@H](CCCNC(=N)N)C(=O)N[C@@H](CCC(N)=O)C(=O)N[C@@H](CCCNC(=N)N)C(=O)N[C@@H](Cc1ccc(O)cc1)C(N)=O)[C@@H](C)O
With B1, the affinity corresponds to a Ki of 4.23 nM.

B2: Compound 102 (peptide)
peptide: Isovaleryl-APEK([Ahx-γGlu-C18 diacid])PEEDATLEELQRYYVSLRHYYNWLTRQRY-NH2
SMILES: CC(C)CC(=O)N[C@@H](C)C(=O)N1CCC[C@H]1C(=O)N[C@@H](CCC(=O)O)C(=O)N[C@@H](CCCCNC(=O)CCCCCNC(=O)CC[C@H](NC(=O)CCCCCCCCCCCCCCCCC(=O)O)C(=O)O)C(=O)N1CCC[C@H]1C(=O)N[C@@H](CCC(=O)O)C(=O)N[C@@H](CCC(=O)O)C(=O)N[C@@H](CC(=O)O)C(=O)N[C@@H](C)C(=O)N[C@H](C(=O)N[C@@H](CC(C)C)C(=O)N[C@@H](CCC(=O)O)C(=O)N[C@@H](CCC(=O)O)C(=O)N[C@@H](CC(C)C)C(=O)N[C@@H](CCC(N)=O)C(=O)N[C@@H](CCCNC(=N)N)C(=O)N[C@@H](Cc1ccc(O)cc1)C(=O)N[C@@H](Cc1ccc(O)cc1)C(=O)N[C@H](C(=O)N[C@@H](CO)C(=O)N[C@@H](CC(C)C)C(=O)N[C@@H](CCCNC(=N)N)C(=O)N[C@@H](Cc1c[nH]cn1)C(=O)N[C@@H](Cc1ccc(O)cc1)C(=O)N[C@@H](Cc1ccc(O)cc1)C(=O)N[C@@H](CC(N)=O)C(=O)N[C@@H](Cc1c[nH]c2ccccc12)C(=O)N[C@@H](CC(C)C)C(=O)N[C@H](C(=O)N[C@@H](CCCNC(=N)N)C(=O)N[C@@H](CCC(N)=O)C(=O)N[C@@H](CCCNC(=N)N)C(=O)N[C@@H](Cc1ccc(O)cc1)C(N)=O)[C@@H](C)O)C(C)C)[C@@H](C)O
In the case of B2, the Ki worked out at 7.15 nM.

B3: Compound 105 (peptide)
peptide: Isovaleryl-APEK([Ahx-γGlu-C18 diacid])PEEDATQEELQRYYVSLRHYYNWLTRQRY-NH2
SMILES: CC(C)CC(=O)N[C@@H](C)C(=O)N1CCC[C@H]1C(=O)N[C@@H](CCC(=O)O)C(=O)N[C@@H](CCCCNC(=O)CCCCCNC(=O)CC[C@H](NC(=O)CCCCCCCCCCCCCCCCC(=O)O)C(=O)O)C(=O)N1CCC[C@H]1C(=O)N[C@@H](CCC(=O)O)C(=O)N[C@@H](CCC(=O)O)C(=O)N[C@@H](CC(=O)O)C(=O)N[C@@H](C)C(=O)N[C@H](C(=O)N[C@@H](CCC(N)=O)C(=O)N[C@@H](CCC(=O)O)C(=O)N[C@@H](CCC(=O)O)C(=O)N[C@@H](CC(C)C)C(=O)N[C@@H](CCC(N)=O)C(=O)N[C@@H](CCCNC(=N)N)C(=O)N[C@@H](Cc1ccc(O)cc1)C(=O)N[C@@H](Cc1ccc(O)cc1)C(=O)N[C@H](C(=O)N[C@@H](CO)C(=O)N[C@@H](CC(C)C)C(=O)N[C@@H](CCCNC(=N)N)C(=O)N[C@@H](Cc1c[nH]cn1)C(=O)N[C@@H](Cc1ccc(O)cc1)C(=O)N[C@@H](Cc1ccc(O)cc1)C(=O)N[C@@H](CC(N)=O)C(=O)N[C@@H](Cc1c[nH]c2ccccc12)C(=O)N[C@@H](CC(C)C)C(=O)N[C@H](C(=O)N[C@@H](CCCNC(=N)N)C(=O)N[C@@H](CCC(N)=O)C(=O)N[C@@H](CCCNC(=N)N)C(=O)N[C@@H](Cc1ccc(O)cc1)C(N)=O)[C@@H](C)O)C(C)C)[C@@H](C)O
Take B3: the Ki was found to be 5.97 nM. The Ki values of the last two molecules are within 1.5-fold of each other.

B4: Compound 100 (peptide)
peptide: Isovaleryl-APEK([Ahx-γGlu-C18 diacid])PEADATPEELQRYYIALRHYYNWLTRQRY-NH2
SMILES: CC[C@H](C)[C@H](NC(=O)[C@H](Cc1ccc(O)cc1)NC(=O)[C@H](Cc1ccc(O)cc1)NC(=O)[C@H](CCCNC(=N)N)NC(=O)[C@H](CCC(N)=O)NC(=O)[C@H](CC(C)C)NC(=O)[C@H](CCC(=O)O)NC(=O)[C@H](CCC(=O)O)NC(=O)[C@@H]1CCCN1C(=O)[C@@H](NC(=O)[C@H](C)NC(=O)[C@H](CC(=O)O)NC(=O)[C@H](C)NC(=O)[C@H](CCC(=O)O)NC(=O)[C@@H]1CCCN1C(=O)[C@H](CCCCNC(=O)CCCCCNC(=O)CC[C@H](NC(=O)CCCCCCCCCCCCCCCCC(=O)O)C(=O)O)NC(=O)[C@H](CCC(=O)O)NC(=O)[C@@H]1CCCN1C(=O)[C@H](C)NC(=O)CC(C)C)[C@@H](C)O)C(=O)N[C@@H](C)C(=O)N[C@@H](CC(C)C)C(=O)N[C@@H](CCCNC(=N)N)C(=O)N[C@@H](Cc1c[nH]cn1)C(=O)N[C@@H](Cc1ccc(O)cc1)C(=O)N[C@@H](Cc1ccc(O)cc1)C(=O)N[C@@H](CC(N)=O)C(=O)N[C@@H](Cc1c[nH]c2ccccc12)C(=O)N[C@@H](CC(C)C)C(=O)N[C@H](C(=O)N[C@@H](CCCNC(=N)N)C(=O)N[C@@H](CCC(N)=O)C(=O)N[C@@H](CCCNC(=N)N)C(=O)N[C@@H](Cc1ccc(O)cc1)C(N)=O)[C@@H](C)O
Molecule B4 registered an inhibition constant Ki of 1.01 nM.

B5: Compound 107 (peptide)
peptide: Isovaleryl-APEK([Ahx-γGlu-C18 diacid])PEEDAEPEETQRYYVSLRHYYNWLTRQRY-NH2
SMILES: CC(C)CC(=O)N[C@@H](C)C(=O)N1CCC[C@H]1C(=O)N[C@@H](CCC(=O)O)C(=O)N[C@@H](CCCCNC(=O)CCCCCNC(=O)CC[C@H](NC(=O)CCCCCCCCCCCCCCCCC(=O)O)C(=O)O)C(=O)N1CCC[C@H]1C(=O)N[C@@H](CCC(=O)O)C(=O)N[C@@H](CCC(=O)O)C(=O)N[C@@H](CC(=O)O)C(=O)N[C@@H](C)C(=O)N[C@@H](CCC(=O)O)C(=O)N1CCC[C@H]1C(=O)N[C@@H](CCC(=O)O)C(=O)N[C@@H](CCC(=O)O)C(=O)N[C@H](C(=O)N[C@@H](CCC(N)=O)C(=O)N[C@@H](CCCNC(=N)N)C(=O)N[C@@H](Cc1ccc(O)cc1)C(=O)N[C@@H](Cc1ccc(O)cc1)C(=O)N[C@H](C(=O)N[C@@H](CO)C(=O)N[C@@H](CC(C)C)C(=O)N[C@@H](CCCNC(=N)N)C(=O)N[C@@H](Cc1c[nH]cn1)C(=O)N[C@@H](Cc1ccc(O)cc1)C(=O)N[C@@H](Cc1ccc(O)cc1)C(=O)N[C@@H](CC(N)=O)C(=O)N[C@@H](Cc1c[nH]c2ccccc12)C(=O)N[C@@H](CC(C)C)C(=O)N[C@H](C(=O)N[C@@H](CCCNC(=N)N)C(=O)N[C@@H](CCC(N)=O)C(=O)N[C@@H](CCCNC(=N)N)C(=O)N[C@@H](Cc1ccc(O)cc1)C(N)=O)[C@@H](C)O)C(C)C)[C@@H](C)O
The molecule B5 gave a Ki of 5.13 nM. This Ki is about 5.1-fold higher than that of the molecule before.

B6: Compound 108 (peptide)
peptide: Isovaleryl-APEK([Ahx-γGlu-C18 diacid])PEADASEEELQRYYVSLRHYYNWLTRQRY-NH2
SMILES: CC(C)CC(=O)N[C@@H](C)C(=O)N1CCC[C@H]1C(=O)N[C@@H](CCC(=O)O)C(=O)N[C@@H](CCCCNC(=O)CCCCCNC(=O)CC[C@H](NC(=O)CCCCCCCCCCCCCCCCC(=O)O)C(=O)O)C(=O)N1CCC[C@H]1C(=O)N[C@@H](CCC(=O)O)C(=O)N[C@@H](C)C(=O)N[C@@H](CC(=O)O)C(=O)N[C@@H](C)C(=O)N[C@@H](CO)C(=O)N[C@@H](CCC(=O)O)C(=O)N[C@@H](CCC(=O)O)C(=O)N[C@@H](CCC(=O)O)C(=O)N[C@@H](CC(C)C)C(=O)N[C@@H](CCC(N)=O)C(=O)N[C@@H](CCCNC(=N)N)C(=O)N[C@@H](Cc1ccc(O)cc1)C(=O)N[C@@H](Cc1ccc(O)cc1)C(=O)N[C@H](C(=O)N[C@@H](CO)C(=O)N[C@@H](CC(C)C)C(=O)N[C@@H](CCCNC(=N)N)C(=O)N[C@@H](Cc1c[nH]cn1)C(=O)N[C@@H](Cc1ccc(O)cc1)C(=O)N[C@@H](Cc1ccc(O)cc1)C(=O)N[C@@H](CC(N)=O)C(=O)N[C@@H](Cc1c[nH]c2ccccc12)C(=O)N[C@@H](CC(C)C)C(=O)N[C@H](C(=O)N[C@@H](CCCNC(=N)N)C(=O)N[C@@H](CCC(N)=O)C(=O)N[C@@H](CCCNC(=N)N)C(=O)N[C@@H](Cc1ccc(O)cc1)C(N)=O)[C@@H](C)O)C(C)C
B6 returned an inhibitory constant (Ki) of 2.77 nM.
